Tested on: patients with newly diagnosed multiple myeloma ineligible for HDC and ASCT
Test: MAIA: safety, adverse events graded by NCI-CTCAE version 4, treatment discontinuations
Excerpt: Safety will be measured by adverse events, laboratory test results, ECGs, vital sign measurements, physical examination findings, and assessment of ECOG performance status score.
Safety analyses included adverse event assessment graded in severity according to NCI-CTCAE version 4, electrocardiograms, clinical laboratory testing, physical examinations, and vital signs.
The safety population included patients who received any dose of trial treatment.

With “Daratumumab (DARZALEX®): antibody that specifically binds CD38, heavy chain of SEQ ID NO: 9 and light chain of SEQ ID NO: 10 [reference compound]” the “infusion-related reactions occurring during the first dose” value (% of patients with infusion reactions) was 98.0%, the infusion-related reactions (% of patients, any grade) was 40.9% and the “patients who discontinued daratumumab treatment due to an infusion-related reaction” value (grade 4 hypertension) was “one”. For the same substance, the “infusion-related reactions, grade 3 or 4 events” value (in vivo) was 2.7% and the “infusion-related reactions, grade 5 events” value (in vivo) was “no grade 5 events were reported”.
